Earlier results, collected in publication PMC10213764 (Acta Pharmaceutica Sinica. B, 2023).

Conditions: continuous agitation, 37 °C

Substance: native insulin: Native insulin was purchased from Life Technologies
- time free from aggregation, formulated with CB[7]‒PEG conjugate: > 100 days
